Tests used:
[1] = target: the molecule itself; experiment: cross-linking; Ca2+-loaded proteins: 0.02% glutaric aldehyde, 16 h, 20 °C, protein 1 mg/mL, 20 mM Tricine-KOH pH 7.4, 50 mM KCl, 1 mM DTT, 1 mM CaCl2; SDS-PAGE, Coomassie, densitometry; self-association
Summary of the method: (§1)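 Recombinant human recoverin or its alanine-substituted forms, expressed in E. coli and purified, were freed of metal ions by gel filtration. They were crosslinked at 1.0 mg/mL with 0.02% glutaric aldehyde in 20 mM Tricine-KOH pH 7.4, 50 mM KCl, 1 mM DTT plus EDTA, MgCl2/EGTA or CaCl2, for 16 h at 20 °C. Products (5 µg/lane, 15% resolving SDS-PAGE) were Coomassie-stained, scanned and quantified in Quantity One as percentage per oligomer band.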

[2] = target: the molecule itself; experiment: cross-linking; Mg2+-loaded proteins: 0.02% glutaric aldehyde, 16 h, 20 °C, protein 1 mg/mL, 20 mM Tricine-KOH pH 7.4, 50 mM KCl, 1 mM DTT, 1 mM MgCl2, 1 mM EGTA; SDS-PAGE, Coomassie, densitometry; self-association
Summary of the method: as §1

[3] = target: the molecule itself; experiment: cross-linking; apo-proteins: 0.02% glutaric aldehyde, 16 h, 20 °C, protein 1 mg/mL, 20 mM Tricine-KOH pH 7.4, 50 mM KCl, 1 mM DTT, 1 mM EDTA; SDS-PAGE, Coomassie, densitometry; self-association
Summary of the method: as §1

B1: human recoverin mutant Y86A (natural protein, UniProt P35243 1-200, looked up)
chain: MGNSKSGALSKEILEELQLNTKFSEEELCSWYQSFLKDCPTGRITQQQFQSIYAKFFPDTDPKAYAQHVFRSFDSNLDGTLDFKEAVIALHMTTAGKTNQKLEWAFSLYDVDGNGTISKNEVLEIVMAIFKMITPEDVKLLPDDENTPEKRAEKIWKYFGKNDDDKLTEKEFIEGTLANKEILRLIQFEPQKVKEKMKNA
modifications: myristoylated (fraction of non-myristoylated forms did not exceed 16%)
notes: recoverin, human, UniProt P35243, N-terminal 'black' cluster mutant; Parent construct as m1; source: E. coli, expressed and purified similarly to the rWT protein (phenyl-Sepharose, Toyopearl SuperQ-650M)
- Dimer 50 kDa, % [1]: 28.5 ± 1.4%
- Monomer 20 kDa, % [1]: 35.8 ± 2.7%
- Multimer 100–250 kDa, % [1]: 14.2 ± 0.6%
- Trimer 70–100 kDa, % [1]: 21.5 ± 0.7%
- Dimer 50 kDa, % [2]: 33.9 ± 0.2%
- Monomer 20 kDa, % [2]: 66.1 ± 0.2%
- Dimer 50 kDa, % [3]: 30.7 ± 3%
- Monomer 20 kDa, % [3]: 69.3 ± 3%
